B1: Glucocorticoid receptor (Homo sapiens), P04150 (parent)
chain: MDSKESLTPGREENPSSVLAQERGDVMDFYKTLRGGATVKVSASSPSLAVASQSDSKQRRLLVDFPKGSVSNAQQPDLSKAVSLSMGLYMGETETKVMGNDLGFPQQGQISLSSGETDLKLLEESIANLNRSTSVPENPKSSASTAVSAAPTEKEFPKTHSDVSSEQQHLKGQTGTNGGNVKLYTTDQSTFDILQDLEFSSGSPGKETNESPWRSDLLIDENCLLSPLAGEDDSFLLEGNSNEDCKPLILPDTKPKIKDNGDLVLSSPSNVTLPQVKTEKEDFIELCTPGVIKQEKLGTVYCQASFPGANIIGNKMSAISVHGVSTSGGQMYHYDMNTASLSQQQDQKPIFNVIPPIPVGSENWNRCQGSGDDNLTSLGTLNFPGRTVFSNGYSSPSMRPDVSSPPSSSSTATTGPPPKLCLVCSDEASGCHYGVLTCGSCKVFFKRAVEGQHNYLCAGRNDCIIDKIRRKNCPACRYRKCLQAGMNLEARKTKKKIKGIQQATTGVSQETSENPGNKTIVPATLPQLTPTLVSLLEVIEPEVLYAGYDSSVPDSTWRIMTTLNMLGGRQVIAAVKWAKAIPGFRNLHLDDQMTLLQYSWMFLMAFALGWRSYRQSSANLLCFAPDLIINEQRMTLPCMYDQCKHMLYVSSELHRLQVSYEEYLCMKTLLLLSSVPKDGLKSQELFDEIRMTYIKELGKAIVKREGNSSQNWQRFYQLTKLLDSMHEVVENLLNYCFQTFLDKTMSIEFPEMLAEIITNQIPKYSNGNIKKLLFHQK

Variants of: B1
Conditions: with akt1_human AKT1, P31749
Sequence of akt1_human AKT1, P31749 (P31749 whole entry): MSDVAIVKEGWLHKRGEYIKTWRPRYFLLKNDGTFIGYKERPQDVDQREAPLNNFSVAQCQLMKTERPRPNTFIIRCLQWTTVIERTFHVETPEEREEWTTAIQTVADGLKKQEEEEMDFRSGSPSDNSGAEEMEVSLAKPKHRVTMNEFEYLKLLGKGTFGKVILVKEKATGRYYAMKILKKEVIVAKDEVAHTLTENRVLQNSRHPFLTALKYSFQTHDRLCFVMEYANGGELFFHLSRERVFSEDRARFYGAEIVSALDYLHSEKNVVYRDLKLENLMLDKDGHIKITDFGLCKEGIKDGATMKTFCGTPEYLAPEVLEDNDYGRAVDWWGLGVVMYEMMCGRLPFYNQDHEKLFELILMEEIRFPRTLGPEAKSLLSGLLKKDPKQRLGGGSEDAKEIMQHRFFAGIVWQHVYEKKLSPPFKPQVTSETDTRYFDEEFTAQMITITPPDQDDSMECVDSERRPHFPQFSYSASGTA

Row | Variant | effect of a mutation on the interaction
1 | S134A | disrupting interaction
